Laboratory results taken from patent publication US11629364B2, “Methods for synthesizing anticoagulant polysaccharides” (OPTIMVIA, LLC, priority 2019, dated 2023).
Numbering of substitutions follows the chain as printed. Values belong to the molecule of their own block, whether it stands above or below them.

Columns and labels:
Type in all cases: biochemical
[1] = 3OST activity confirmed by 1H NMR; conditions: PNS as aryl sulfate compound
Experimental: Each enzyme was purified according to the procedure of Example 1. To each purified protein solution, 20 mg of an aryl sulfate compound (PNS or NCS) dissolved in 2 mL of reaction buffer (50 mM MES pH 7.0, 2 mM CaCl2)) was added to the protein solution and incubated at 37° C. for 10 min. 2.5 mL of 2 mg/mL solution of the commercial heparin polysaccharide utilized in Example 5 was added to protein/donor solution and incubated overnight at 37° C.
Each reaction was centrifuged at 5,000×g for 10 min, applied to a pre-wetted 30K MWCO Amicon-15 filter and centrifuged at 5,000×g for 10 min. The filter was washed once with 2 mL water, and centrifuged again. The filtrate was added to a 1K MWCO Dialysis membrane, dialyzed for 2 days in Milli-Q water, with water changes at 1 h, 2 h, 8 h, 16 h, 32 h, and then lyophilized. The dry, white powder was resuspended in 400 μL D20, lyophilized to remove exchangeable protons, then resuspended in 600 μL D2O and transferred to NMR tubes (Wilmad, 0.38 mm×7″). To determine if sulfotransfer took place, ^1H NMR spectra were obtained on a Bruker 600 MHz NMR, 32 scans, with water suppression. Within FIG. 30, the 3-O positions of any of the glucosamine residues can be sulfated by the 3OST enzyme. The sulfated 3-O position is circled in the central polysaccharide. […]

[2] = 3OST activity: 3-O sulfated products detected by LCMS after lyase digestion; conditions: for 3OST activity: N,2,3,6-HS products by MS and/or NMR: procedures of Example 5 and/or Example 6, expected
Experimental: A study was conducted in accordance with embodiments of the present disclosure to confirm 3OST activity of enzymes comprising the amino acid sequence of SEQ ID NO: 24, SEQ ID NO: 26, or SEQ ID NO: 28 by detecting the presence of 3-O sulfated polysaccharide products as a result of their sulfotransfer reaction, using a reaction, using a similar LCMS procedure as in Example 3, except that the sulfo acceptor polysaccharide was commercially-available heparin (CAS code: 9041-08-1, available from Millipore Sigma). Even though the unmodified heparin contains ˜3.5% (w/w) of 3-O sulfated glucosamine residues, about ˜60% of the glucosamine residues are N,6-sulfated and are adjacent to a 2-O sulfated hexuronic acid residue, as in Formula X. Consequently, these N,6-sulfated glucosamine residues can still be 3-O sulfated.

[3] = 2OST activity: 2-O sulfated products detected by LCMS after lyase digestion; conditions: procedures of Example 3; expected
Experimental: A study was conducted in accordance with embodiments of the present disclosure to confirm 2OST activity of enzymes comprising the amino acid sequence of SEQ ID NO: 14 or SEQ ID NO: 16 by detecting the presence of 2-O sulfated polysaccharide products formed as a result of their sulfotransfer reaction, using a similar procedure as in Example 2, except that the sulfo acceptor polysaccharide was commercial heparin in which the 2-O sulfate groups had been selectively removed by chemical means (product DSH001/2, available from Galen Laboratory Supplies) and analysis of each of the digested samples containing sulfated products was conducted using mass spectrometry, coupled with SAX-based high performance liquid chromatography (LCMS).
Disaccharides obtained by digesting the 2-O sulfated products using the carbon-oxygen lyases having the amino acid sequence of SEQ ID NO: 30, SEQ ID NO: 31, and SEQ ID NO: 32 and according to the procedure described above in Example 2 were quantified on a Shimadzu LCMS-8050 Triple Quadrupole Liquid Chromatograph Mass Spectrometer. 100 ng of each of the digested samples, diluted in 10 mM ammonium bicarbonate (pH 10). The disaccharides were separated on a Thermo Hypercarb HPLC column (100×2.1 mm, 5 μm). […]

B1: SEQ ID NO: 26: engineered aryl sulfate-dependent 3OST enzyme, mutant of isoform 1 of the human 3OST enzyme (protein)
chain: MGTASNGSTQQLPQTIIIGVGHGGTRALLEMLSLHPDVAAAENEVHFFDWEEHYSQGLGWYLTQMPFSSPHQLTVEKTHSYFTSPKVPERIHSMNPTIRLLLILRDPSERVLSAYTHMLYNHLQKHKPYPPIEDLLMRDGRLNLDYTGLNRSLYHAHMLNWLRFFPLGHIHIVDGDRLIRDPFPEIQKVERFLKLSPQINASNFYFNKTKGFYCLRDSGKDRCLHESKGRAHPQVDPKLLDKLHEYFHEPNKKFFKLVGRTFDWH
modifications: Amino acid sequence encoding for engineered arylsulfate-dependent 3-O-sulfotransferase variant 2
notes: engineered aryl sulfate-dependent 3OST enzyme, mutant of isoform 1 of the human 3OST enzyme
- 3OST sulfotransferase activity with PNS (NMR) [1]: 3-O sulfotransferase activity
- 3OST sulfotransferase activity with NCS ([2]; NCS as aryl sulfate compound): active as a sulfotransferase
- abundance of 3-O sulfation in product ([2]; relative to the commercial heparin standard): higher abundance of 3-O sulfation

B2: SEQ ID NO: 56: full-length mutant of isoform 5 of the mouse 3OST enzyme, SEQ ID NO: 24 mutations (protein)
chain: MLFKQQVWLRQKLLVLGSLAVGSLLYLVARVGSLDRLQPICPVESRFGGAHNQAELPLRALQFKRGLLHEFRKGNSSKEQVHLHDLVQQLPKAIIIGVGHGGTRALLEMLNLHPAVVKASQEIHFFDNDENYAKGIEWYRKKMPFSYPQQITIEKSHSYFITEEVPERIYKMNSSIKLLIIVREPTTRAISAYTHMLEGKERKNKTYYKFEKLAIDPNTCEVNTKYVGVRTSIYTKHLERWLKYFPIEQFHIVDGDRLITEPLPELQLVEKFLNLPPRISQYNLYFNATRGFYCLRFNIIFNKCLAGSKGRIHPEVDPSVITKLRKFFHPFNQKFYQITGRTLNWP
modifications: Amino acid sequence encoding for engineered arylsulfate-dependent 3-O-sulfotransferase variant 8
- 3OST activity: N,2,3,6-HS products by MS and/or NMR [2]: confirm the presence of N,2,3,6-HS products

B3: SEQ ID NO: 57: full-length mutant of isoform 5 of the mouse 3OST enzyme, SEQ ID NO: 26 mutations (protein)
chain: B2 chain with V227T
modifications: Amino acid sequence encoding for engineered arylsulfate-dependent 3-O-sulfotransferase variant 9
- 3OST activity: N,2,3,6-HS products by MS and/or NMR [2]: confirm the presence of N,2,3,6-HS products

B4: SEQ ID NO: 58: full-length mutant of isoform 5 of the mouse 3OST enzyme, SEQ ID NO: 28 mutations (protein)
chain: B2 chain with A192L, Y193G, M196L, G199V, V227T
modifications: Amino acid sequence encoding for engineered arylsulfate-dependent 3-O-sulfotransferase variant 10
- 3OST activity: N,2,3,6-HS products by MS and/or NMR [2]: confirm the presence of N,2,3,6-HS products

Further lines, results first:

- 2OST activity: N,2-HS products by MS [3]: confirm the presence of N,2-HS products
B5: SEQ ID NO: 41: mutant of the human 2OST enzyme carrying the SEQ ID NO: 14 mutations (protein)
chain: MDEEEDMVIIYNRVPHTASTSFTNIAYDLCAKNKYHVLHINTTKNNPVMSLQDQVRFVKNITSWKEMKPGFYHGHVSYLDFAKFGVKKKPIYINVIRDPIERLVSYYYHLRFGDDYRPGLRRRKQGDKKTFDECVAEGGSDCAPEKLWLQIPFFCGHSSECWNVGSRWAMDQAKYNLINEYFLVGVTEELEDFIMLLEAALPRFFRGATELYRTGKKSHLHKTTEKKLPTKQTIAKLQQSDIWKMENEFYEFALEQFQFIRAHAVREKDGDLYILAQNFFYEKIYPKSN
modifications: Amino acid sequence encoding for engineered arylsulfate-dependent 2-O-sulfotransferase variant 3

- 2OST activity: N,2-HS products by MS [3]: confirm the presence of N,2-HS products
B6: SEQ ID NO: 42: mutant of the human 2OST enzyme carrying the SEQ ID NO: 16 mutations (protein)
chain: B5 chain with P15H, H16R, T20H, N45G, H75P, H109F, D114S, Y116K, R122M
modifications: Amino acid sequence encoding for engineered arylsulfate-dependent 2-O-sulfotransferase variant 4
